Patent US20260248972A1, “DUAL RECEPTOR TARGETING RADIOLIGANDS AND USES THEREOF RELATED APPLICATIONS” (priority 2022, published 2026)
Read-outs that look alike come from different tables or passages of the source.

How the values were obtained:
CCK2R = target: T1, CCK2R (Rattus norvegicus, UniProt P30553); experiment: Competitive cell-binding assay on AR42J cells with 125I-C3 as competitive ligand
T1 construct: host or cells: AR42J cells
T1 sequence (P30553 1-452): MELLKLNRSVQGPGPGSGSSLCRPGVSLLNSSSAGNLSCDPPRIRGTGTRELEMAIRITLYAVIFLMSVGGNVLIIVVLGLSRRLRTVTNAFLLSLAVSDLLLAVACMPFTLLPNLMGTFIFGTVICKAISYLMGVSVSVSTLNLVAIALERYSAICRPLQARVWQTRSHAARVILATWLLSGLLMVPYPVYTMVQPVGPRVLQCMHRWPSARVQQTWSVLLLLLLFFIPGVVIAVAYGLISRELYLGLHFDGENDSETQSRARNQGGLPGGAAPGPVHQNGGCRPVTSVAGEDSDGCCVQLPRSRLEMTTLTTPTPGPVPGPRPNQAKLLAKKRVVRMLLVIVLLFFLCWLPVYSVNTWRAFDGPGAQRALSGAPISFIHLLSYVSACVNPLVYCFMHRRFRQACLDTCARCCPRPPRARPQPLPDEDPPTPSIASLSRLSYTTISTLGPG
Description: AR42J cells (ATCC) were maintained in RPMI-1640 medium (Gibco) supplemented with 15% fetal bovine serum (Gibco) and 1% penicillin-streptomycin (BI) at 37° C. in a humidified incubator with 5% CO2. The culture medium was replaced with fresh medium every 2-3 days. Experiments were performed with cells at 70-80% confluence.
Binding Affinity Tested by Using ^125I-Labeled Competitive Ligands.
The binding affinities of test compounds were determined by a competitive cell-binding assay using ^125I-C1 and ^125I-C3 as the competitive ligand. The suspended AR42J cells at a density of 1~3×10^6 cells/mL in binding buffer (RPMI-1640 medium supplemented with 0.25% bovine serum albumin) were transferred to a MultiScreen-DV Filter Plate (Millipore) with 100 μL per well except the blank group where the binding buffer was used instead. The cells were then incubated with ^125I-C1 and ^125I-C3 (0.02 μCi/well) in the presence of increasing concentrations (0-10000 nM) of test compounds at 37° C. for 1 h (n=3). The final volume in each well was maintained at 200 μL and insufficient volume was adjusted by the binding buffer. After the 1 h incubation, unbound ^125I-competitive ligands were removed by filtration using a Multiscreen vacuum manifold (Millipore) followed by rinses with the binding buffer (3 times). The filters were collected, and their radioactivity were individually measured by γ counter (2480 WIZARD2, PerkinElmer). The best-fit IC50value (inhibitory concentration when 50% of the bound ^125I-C1 and ^125l I-C3 on cells were displaced) of test compounds were calculated by fitting the data with nonlinear regression using GraphPad Prism 8.0.1.

SSTR2 = target: T2, SSTR2 (Rattus norvegicus, UniProt P30680); experiment: Competitive cell-binding assay on AR42J cells with 125I-C1 as competitive ligand
T2 construct: host or cells: AR42J cells
T2 sequence (P30680 whole entry): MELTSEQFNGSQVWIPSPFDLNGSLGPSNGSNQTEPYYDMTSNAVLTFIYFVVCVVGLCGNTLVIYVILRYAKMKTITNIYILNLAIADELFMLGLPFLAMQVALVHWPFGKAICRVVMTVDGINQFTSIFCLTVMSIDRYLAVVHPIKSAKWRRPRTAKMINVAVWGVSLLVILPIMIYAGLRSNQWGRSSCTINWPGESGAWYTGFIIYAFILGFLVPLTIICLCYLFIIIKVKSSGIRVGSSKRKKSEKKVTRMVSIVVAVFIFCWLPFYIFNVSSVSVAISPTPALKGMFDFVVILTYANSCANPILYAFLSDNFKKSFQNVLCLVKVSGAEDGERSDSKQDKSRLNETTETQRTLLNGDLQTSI
Summary of the method: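 Displacement of 125I-C1 or 125I-C3 tracer (0.02 μCi/well) by 0-10000 nM compound measured in triplicate on suspended AR42J cells in BSA-containing RPMI-1640, 37° C. for 1 h. After filtration washes, filter-bound counts gave IC50 via nonlinear regression fit.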

in vivo = conditions: BALB/c nude, mouse, in vivo, iv, total radioactivity
Summary of the method: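 Tissue uptake given as % ID and % ID/g from γ counting of organs taken 4, 24 and 72 h after injection into BALB/c nude mice carrying subcutaneous AR42J xenografts (0.05-0.50 g). Tracers were ^177Lu-labelled at 95° C for 15 min in pH 4.5 NaOAc buffer and used neat or diluted in PBS containing 3 mg/mL ascorbate.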

Compound	Relative Binding Affinity CCK2R (CCK2R; based on mean IC50, C-2 = 1.00)	Relative Binding Affinity SSTR2 (SSTR2; based on mean IC50, C-1 = 1.00)	tissue to tissue ratio at 24 h (in vivo; T/K Tumor/Kidney ratio)	tissue to tissue ratio at 24 h (in vivo; T/L Tumor/Liver ratio)	tissue to tissue ratio at 24 h (in vivo; T/P Tumor/Pancreas ratio)	tissue to tissue ratio at 24 h (in vivo; T/Sp Tumor/Spleen ratio)	tissue to tissue ratio at 24 h (in vivo; T/St Tumor/Stomach ratio)	tissue uptake at 24 h (in vivo; uptake Kidney) [%ID/g]	tissue uptake at 24 h (in vivo; uptake Liver) [%ID/g]	tissue uptake at 24 h (in vivo; uptake Pancreas) [%ID/g]	tissue uptake at 24 h (in vivo; uptake Spleen) [%ID/g]	tissue uptake at 24 h (in vivo; uptake Stomach) [%ID/g]	tissue uptake at 24 h (in vivo; uptake Tumor) [%ID/g]	other results
C[C@@H](O)[C@H](NC(=O)[C@@H]1CSSC[C@H](NC(=O)[C@@H](Cc2ccccc2)NC(=O)COCCOCCNC(=O)[C@H](CCCCNC(=O)[C@H](CCC(=O)O)NC(=O)c2cccc(NC(=O)N[C@@H]3CN(C4CCCCC4)c4ccccc4N(CC(=O)C(C)(C)C)C3=O)c2)NC(=O)CN2CCN(CC(=O)O)CCN(CC(=O)O)CCN(CC(=O)O)CC2)C(=O)N[C@@H](Cc2ccc(O)cc2)C(=O)N[C@H](Cc2c[nH]c3ccccc23)C(=O)N[C@@H](CCCCN)C(=O)N[C@@H]([C@@H](C)O)C(=O)N1)C(N)=O [Compound I-3, DOTA-K(-E-Z360)-OEG-f[CYwKTC]T-NH2]	5.3	0.50	0.8	12	13	45	4.2	16.5	1.16	1.05	0.3	3.24	13.6	–
C[C@@H](O)[C@H](NC(=O)[C@@H]1CSSC[C@H](NC(=O)[C@@H](Cc2ccccc2)NC(=O)CC[C@H](NC(=O)[C@H](CCCCNC(=O)CC[C@H](NC(=O)CNC(=O)c2cccc(NC(=O)N[C@@H]3CN(C4CCCCC4)c4ccccc4N(CC(=O)C(C)(C)C)C3=O)c2)C(=O)O)NC(=O)CC[C@H](NC(=O)CN2CCN(CC(=O)O)CCN(CC(=O)O)CCN(CC(=O)O)CC2)C(=O)O)C(=O)O)C(=O)N[C@@H](Cc2ccc(O)cc2)C(=O)N[C@H](Cc2c[nH]c3ccccc23)C(=O)N[C@@H](CCCCN)C(=O)N[C@@H]([C@@H](C)O)C(=O)N1)C(=O)O [Compound I-9, DOTA-gE-K(-gE-G-Z360)-gE-f[CYwKTC]T-OH]	13.5	2.85	0.3	8.3	3.8	11	3.4	42.2	1.31	2.89	1.03	3.22	10.9	–
C[C@@H](O)[C@H](NC(=O)[C@@H]1CSSC[C@H](NC(=O)[C@@H](Cc2ccccc2)NC(=O)COCCOCCNC(=O)[C@H](CCCCNC(=O)CCC(C(=O)O)N2CCN(CC(=O)O)CCN(CC(=O)O)CCN(CC(=O)O)CC2)NC(=O)COCCOCCNC(=O)CC[C@H](NC(=O)CC[C@H](NC(=O)c2cccc(NC(=O)N[C@@H]3CN(C4CCCCC4)c4ccccc4N(CC(=O)C(C)(C)C)C3=O)c2)C(=O)O)C(=O)O)C(=O)N[C@@H](Cc2ccc(O)cc2)C(=O)N[C@H](Cc2c[nH]c3ccccc23)C(=O)N[C@@H](CCCCN)C(=O)N[C@@H]([C@@H](C)O)C(=O)N1)C(=O)O (stereo partly shown) [Compound I-13, (Z360)- gE- gE- OEG- K(DOTAGA)- OEG- f[CYwKTC]T- OH]	10.8	0.23	0.3	12	12	32	6.8	46.7	1.21	1.21	0.47	2.19	14.8	IC50 (CCK2R; AR42J cells, 125I-C3 competitive ligand, 37° C. 1 h, read-out: CCK2R/IC50): 1.6 nM; IC50 (SSTR2; AR42J cells, 125I-C1 competitive ligand, 37° C. 1 h, read-out: SSTR2/IC50): 12.3 nM
C[C@@H](O)[C@H](NC(=O)[C@@H]1CSSC[C@H](NC(=O)[C@@H](Cc2ccccc2)NC(=O)[C@H](CCCCNC(=O)CC[C@H](NC(=O)CNC(=O)c2cccc(NC(=O)N[C@@H]3CN(C4CCCCC4)c4ccccc4N(CC(=O)C(C)(C)C)C3=O)c2)C(=O)O)NC(=O)COCCOCCNC(=O)CCC(C(=O)O)N2CCN(CC(=O)O)CCN(CC(=O)O)CCN(CC(=O)O)CC2)C(=O)N[C@@H](Cc2ccc(O)cc2)C(=O)N[C@H](Cc2c[nH]c3ccccc23)C(=O)N[C@@H](CCCCN)C(=O)N[C@@H]([C@@H](C)O)C(=O)N1)C(=O)O (stereo partly shown) [Compound I-19, DOTAGA- OEG- K(-gE- G- Z360)- f[CYwKTC]T- OH]	270	0.46	0.6	35	15	46	4.3	51.6	0.96	2.07	0.68	7.24	31.3	–
C[C@@H](O)[C@H](NC(=O)[C@@H]1CSSC[C@H](NC(=O)[C@@H](Cc2ccccc2)NC(=O)[C@H](CCCCNC(=O)c2cccc(NC(=O)N[C@@H]3CN(C4CCCCC4)c4ccccc4N(CC(=O)C(C)(C)C)C3=O)c2)NC(=O)CN2CCN(CC(=O)O)CCN(CC(=O)O)CCN(CC(=O)O)CC2)C(=O)N[C@@H](Cc2ccc(O)cc2)C(=O)N[C@H](Cc2c[nH]c3ccccc23)C(=O)N[C@@H](CCCCN)C(=O)N[C@@H]([C@@H](C)O)C(=O)N1)C(=O)O [Compound I-34, DOTA-K(Z360)-f[CYwKTC]T-OH]	–	–	–	–	–	–	–	–	–	–	–	–	–	Relative Binding Affinity CCK2R (CCK2R): 5.9; Relative Binding Affinity SSTR2 (SSTR2): 1.49; tissue to tissue ratio at 24 h (in vivo; T/K Tumor/Kidney ratio, 177Lu-labeled, 24 hours after dosing): 3.7; tissue to tissue ratio at 24 h (in vivo; T/L Tumor/Liver ratio, 177Lu-labeled, 24 hours after dosing): 1.1; tissue to tissue ratio at 24 h (in vivo; T/P Tumor/Pancreas ratio, 177Lu-labeled, 24 hours after dosing): 7; tissue to tissue ratio at 24 h (in vivo; T/Sp Tumor/Spleen ratio, 177Lu-labeled, 24 hours after dosing): 2.4; tissue to tissue ratio at 24 h (in vivo; T/St Tumor/Stomach ratio, 177Lu-labeled, 24 hours after dosing): 4; tissue uptake at 24 h (in vivo; uptake Kidney, 177Lu-labeled, 24 hours after dosing (Table 5)): 6.1 %ID/g; tissue uptake at 24 h (in vivo; uptake Liver, 177Lu-labeled, 24 hours after dosing (Table 5)): 19.8 %ID/g; tissue uptake at 24 h (in vivo; uptake Pancreas, 177Lu-labeled, 24 hours after dosing (Table 5)): 3.2 %ID/g; tissue uptake at 24 h (in vivo; uptake Spleen, 177Lu-labeled, 24 hours after dosing (Table 5)): 9.5 %ID/g; tissue uptake at 24 h (in vivo; uptake Stomach, 177Lu-labeled, 24 hours after dosing (Table 5)): 5.7 %ID/g; tissue uptake at 24 h (in vivo; uptake Tumor, 177Lu-labeled, 24 hours after dosing (Table 5)): 22.7 %ID/g
